Patent publication US11708423B2, “Chimeric engulfment receptor molecules and methods of use” (CERO THERAPEUTICS, INC., priority 2017, dated 2023)

Legend:
ALK+A549 cells = test: Phagocytosis of ALK inhibitor treated A549 ALK+ cells by CER T cells (fluorescent microscopy); type: cell-based; conditions: 12 hours, CD4 T cells
Excerpt: An ELM4-ALK translocation was introduced into A549 cells. […] CD4 T cells are modified to express CER104 or CER117 and labeled with CELLTRACE Violet. CER117 has a polypeptide sequence set forth in SEQ ID NO:144 and comprises a Tim4 binding domain, a Tim4 transmembrane domain, and an engulfment signaling domain comprising a primary engulfment signaling domain comprising a TLR8 signaling domain and a secondary engulfment signaling domain comprising a TRAF6 signaling domain. The ALK+A549 cells were then co-cultured with CER104- or CER117-expressing CD4+ T cells or Mock-transduced (vector only) T cells for 12 hours and images were obtained by fluorescent microscopy at 40× magnification (FIGS. 62A-E). White arrows indicate exemplary phagocytic events (pH rodo red cell targets within CELLTRACE Violet labeled CD4+ T cells).
CER123- and CER126-transduced CD4+ and CD8+ T cells were labeled with CELLTRACE Violet and co-cultured with the A549 ALK-positive cells. Co-cultured cells were imaged by fluorescent microscopy at 63× magnification after 12 hours (FIGS. 63A-F). White arrows indicate exemplary phagocytic events (pHrodo red targets within CELLTRACE Violet-labeled CD4 T cells).
Phagocytosis of Alectinib-treated ALK+A549 cells by CER-expressing T cells was also quantified. […] Bar graph in FIG. 64A represents quantification of percentage phagocytosis calculated as ((number of phagocytic target events)/(total number of effector cells))*100. Events were calculated from fluorescent 3×3 stitched images at 40×resolution after 12 hours of co-culture. Bar graph in FIG. 64B represents quantification of adjusted phagocytic index calculated as (median area ratio of target events in effector cells*phagocytosis). Events calculated from fluorescent 3×3 stitched images at 40×resolution after 12 hours of co-culture.
CER21−, CER27−, CER30−, CER108−, CER110−, CER112−, CER120−, CER123−, CER124−, CER126−, CER127−, or CER104-transduced CD4+ T cells were co-cultured with Alectinib-treated A549 cells at a 1:1 ratio for 12 hours. Phagocytic events were calculated from 3×3 stitched fluorescent microscopy images at 40X resolution. […] Images were obtained after 12 hours of co-culture. Yellow triangles indicate exemplary phagocytic events (pHrodo red targets within CELLTRACE violet labeled CD4+ T cells).
A time course study of phagocytic uptake of tumor cells by CER-transduced T cells was performed. CD4+ T cells were transduced with a lentiviral vector comprising CER122 nucleic acid. Mock-transduced (vector only) CD4+ T cells were used as control. CER122-transduced T cells were labeled with CELLTRACE violet and co-cultured with pHrodo red labeled A549 ALK+ lung adenocarcinoma cells. Fluorescent microscopy images were obtained at 4, 8, and 16 hours co-culture (FIG. 72C), and % phagocytosis (FIG. 72A) and phagocytic index (FIG. 72B) were calculated.

SCC152 cells = test: Magnitude breadth of phagocytosis by CER-transduced CD4+ T cells; type: cell-based, human; conditions: 8 hours co-culture with CD8/E7 TCR T cells and SCC152 cells
Protocol: Various CER-modified CD4+ T cells were also evaluated for breadth of response to determine whether a particular CER confers a broad phagocytic response of low magnitude (e.g., 10% engulfment in 90% of cells) or a less frequent but strong phagocytic response (e.g., 90% engulfment in 10% of cells) in the host cells. CD8+ T cells were transduced with HPV16 E7 specific TCR as described in Example 5. CD4+ T cells were transduced with lentiviral vectors comprising a CER21, CER27, CER104, CER116, or CER117 nucleic acid. Mock-transduced (vector alone) CD4+ T cell were used as control. CD4+/CER+ and CD8+/E7 TCR+ T cells were stained with CELLTRACE violet. […] HPV16 E7 TCR transduced CD8+ T cells and selected CER transduced CD4+ T cells were mixed at a 1:1 ratio and co-cultured with SCC152 cells at a 1:1 ratio for 8 hours. Phagocytosis of target SCC152 cells by CER-transduced CD4+ T cells was analyzed by fluorescence microscopy. […] The horizontal axis represents the % area of CER-transduced CD4+ T cells having engulfment or % area of […]. This measure was rarely above 40% across CER types tested. The vertical axis represents the proportion of CER-transduced CD4+ T cells that were phagocytic. For CER104, about 20% of CER104-transduced CD4+ T cells have more than 10% engulfment. For CER117-transduced CD4+ T cells, less than 10% have more than 10% engulfment.

[1] = tested on: CER-transduced CD4+ T cells; test: Mass cytometry (CyTOF) with viSNE marker analysis of CER-transduced CD4+ T cells; type: cell-based, human; conditions: CD4+ T cells after co-culture with E7 TCR CD8+ T cells and SCC152 cells
Excerpt: CD4+ T cells were transduced with lentiviral vector comprising CER104, CER116, or CER117 nucleic acid. CER104 (SEQ ID NO:133) comprises a Tim4 binding domain, Tim4 transmembrane domain, and an engulfment signaling domain comprising a primary engulfment signaling domain comprising a TLR8 signaling domain and a secondary engulfment signaling domain comprising a DAP12 signaling domain. CER116 (SEQ ID NO:143) comprises a Tim4 binding domain, Tim4 transmembrane domain, and an engulfment signaling domain comprising a primary engulfment signaling domain comprising a TRAF6 signaling domain and a secondary engulfment signaling domain comprising a TLR8 signaling domain. CER117 (SEQ ID NO:144) comprises a Tim4 binding domain, Tim4 transmembrane domain, and an engulfment signaling domain comprising a primary engulfment signaling domain comprising a TLR8 signaling domain and a secondary engulfment signaling domain comprising a TRAF6 signaling domain. CER-transduced CD4+ T cells were co-cultured with E7 TCR-transduced CD8+ T cells and HPV+SCC152 target cells and interrogated by mass cytometry (CyTOF) with viSNE for visualization of high dimensional single cell data (FIGS. 82-84). Intact CER-transduced CD4+ T cells are shown in plots displaying tSNE1 (horizontal) and tSNE2 (vertical) axes. 27 intracellular markers were used for the viSNE analysis. Each dot represents a single cell. […] Red represents high expression and blue represents low expression for each marker. Populations of CD4^+ T cells were generated using a clustering algorithm from all 27 markers and overlaid onto the viSNE map. […] Populations of CD4^+ T cells were generated using a clustering algorithm from all 18 markers and overlaid onto the viSNE map (FIG. 83A). […] Color plots by 18 intracellular markers (CD28, CCR7, CD45RA, PD1, CD127, Perforin, CD49d, CD85j, CD38, CD27, Granzyme B, CD57, CD25, CD69, CD154, CD56, HLA-DR, and TCRγδ) show the phenotype across viSNE ‘islands’ (FIG. 83B). Red represents high expression and blue represents low expression for each marker. Highlighted region with arrow indicates cells expressing T cell activation marker CD69. Populations of CD4^+ T cells were generated using a clustering algorithm from 18 intracellular markers (CD28, CCR7, CD45RA, PD1, CD127, Perforin, CD49d, CD85j, CD38, CD27, Granzyme B, CD57, CD25, CD69, CD154, CD56, HLA-DR, and TCRγ6) and overlaid onto the viSNE map. […] Color plots by the 18 intracellular markers show the phenotype across viSNE ‘islands’ (FIG. 84B). Red represents high expression and blue represents low expression for each marker. Highlighted region with arrow indicates cells expressing the naïve T cell marker CD45RA.

B1: CER117: Tim4 binding and transmembrane domains, TLR8 primary and TRAF6 secondary signaling domains; SEQ ID NO:144 (protein)
chain: MSKGLLLLWLVTELWWLYLTPAASEDTIIGFLGQPVTLPCHYLSWSQSRNSMCWGKGSCPNSKCNAELLRTDGTRIISRKSTKYTLLGKVQFGEVSLTISNTNRGDSGVYCCRIEVPGWFNDVKKNVRLELRRATTTKKPTTTTRPTTTPYVTTTTPELLPTTVMTTSVLPTTTPPQTLATTAFSTAVTTCPSTTPGSFSQETTKGSAFTTESETLPASNHSQRSMMTISTDIAVLRPTGSNPGILPSTSQLTTQKTTLTTSESLQKTTKSHQINSRQTILIIACCVGFVLMVLLFLAFLHHLFYWDVWFIYNVCLAKVKGYRSLSTSQTFYDAYISYDTKDASVTDWVINELRYHLEESRDKNVLLCLEERDWDPGLAIIDNLMQSINQSKKTVFVLTKKYAKSWNFKTAFYLALQRLMDENMDVIIFILLEPVLQHSQYLRLRQRICKSSILQWPDNPKAEGLFWQTLRNVVLTENDSRYNNMYVDSIKQYMSLLNCENSCGSSQSESDCCVAMASSCSAVTKDDSVGGTASTGNLSSSFMEEIQGYDVEFDPPLESKYECPICLMALREAVQTPCGHRFCKACIIKSIRDAGHKCPVDNEILLENQLFPDNFAKREILSLMVKCPNEGCLHKMELRHLEDHQAHCEFALMDCPQCQRPFQKFHINIHILKDCPRRQVSCDNCAASMAFEDKEIHDQNCPLANVICEYCNTILIREQMPNHYDLDCPTAPIPCTFSTFGCHEKMQRNHLARHLQENTQSHMRMLA
modifications: CER117 protein
ALK+A549 cells; 1 μM Alectinib
  phagocytosis of A549 cells: phagocytosed A549 cells
ALK+A549 cells; 1 μM Crizotinib
  phagocytosis of A549 cells: phagocytosed A549 cells
SCC152 cells
  proportion of CER-transduced CD4+ T cells that have more than 10% engulfment: less than 10%
[1]
  viSNE islands expressing intracellular marker IFNγ: enrichment of islands expressing the intracellular marker IFNγ
